Experimental findings from patent publication US20260078171A1 (INVIVYD, published 2026) are described below.

Assay [1] addresses T1, WT SARS-CoV-2 spike S1 subunit (SARS-CoV-2, UniProt P0DTC2 16-685). Put plainly: bio-layer interferometry (BLI, Octet), monovalent Fab affinity.
Assay [2] addresses SARS-CoV spike S1 subunit (SARS-CoV, UniProt P59594 14-667). Put plainly: BLI (Octet), Fab, monovalent.
Assay [3] concerns the target T1, WT SARS-CoV-2 spike S1 subunit. Nature of the assay: BLI (Octet), Fab, monovalent.

Substitutions are numbered along the chain they refer to.

B1: ADI-58125 (Fab, V domains shown)
VH: EVQLVESGGGLVKPGGSLRLSCAASGFTFSSYYMNWVRQAPGKGLEWVSSISEDGYSTYYPDSLKGRFTISRDSAKNSLYLQMNSLRADDTAVYYCARDFSGHTAWAGTGFEYWGQGTLVTVSS
VL: QSVLTQPPSVSGAPGQRITISCTGSSSNIGAGYDVHWYQQLPGTAPKLLIYGSSSRNSGVPDRFSGSKSGTSASLAITGLQAEDEADYYCQSYDSSLSVLYTFGTGTKVTVLG
In assay [1], B1 yielded a Kd of 0.6 nM.

B2: VYD222 Fab (Fab, V domains shown)
VH: B1 VH with S30G, Y33E, S101G, H103D, E112T
VL: QSVLTQPPSVSGAPGQRITISCTGSSSNIGAGYDVHWYQQLPGTAPKLLIYGSSSRNYGVPDRFSGSKSGTSASLAITGLQAEDEADYYCQSYDSDLGVLYTFGTGTKVTVL
As to B2, the figures for the Kd in assay [2] and in assay [3] were 0.478 nM and 2.14 nM, respectively.
